The record followed here is PMC3510490 (Nucleic Acids Research, 2012).

For the assay, the target named is T1, (H3–H4)2 tetramer (Xenopus laevis, UniProt P84233 1-136; P62799 1-103, H4 E63C, Alexa 488 maleimide on C63 (H4 E63C)).
T1 construct: Histone H3, Xenopus laevis; also called H3–H4 tetramer; H3–H4 complex; copies: 2 + 2
Nature of the assay: other fluorescence titration; Arp constructs or sub-complex titrated (1 to 5000 nM) into fluorescently labelled histone complexes or nucleosomes kept at 0.5-1 nM, 40 µl in microplates; 20 mM Tris pH 7.5, 150 mM KCl, 5% glycerol, 1 mM TCEP, 0.01% CHAPS, 0.01% octylglucoside; room temperature, 20-30 min; apparent Kd and Hill coefficient from non-linear fit; quadruplicates. As to conditions: both partners purified.

B1: Saccharomyces cerevisiae Arp4 (natural protein)
chain: MSNAALQVYGGDEVSAVVIDPGSYTTNIGYSGSDFPQSILPSVYGKYTADEGNKKIFSEQSIGIPRKDYELKPIIENGLVIDWDTAQEQWQWALQNELYLNSNSGIPALLTEPVWNSTENRKKSLEVLLEGMQFEACYLAPTSTCVSFAAGRPNCLVVDIGHDTCSVSPIVDGMTLSKSTRRNFIAGKFINHLIKKALEPKEIIPLFAIKQRKPEFIKKTFDYEVDKSLYDYANNRGFFQECKETLCHICPTKTLEETKTELSSTAKRSIESPWNEEIVFDNETRYGFAEELFLPKEDDIPANWPRSNSGVVKTWRNDYVPLKRTKPSGVNKSDKKVTPTEEKEQEAVSKSTSPAANSADTPNETGKRPLEEEKPPKENNELIGLADLVYSSIMSSDVDLRATLAHNVVLTGGTSSIPGLSDRLMTELNKILPSLKFRILTTGHTIERQYQSWLGGSILTSLGTFHQLWVGKKEYEEVGVERLLNDRFR
notes: Actin-related protein 4 (Arp4), S. cerevisiae; also called Sc Arp4; yeast Arp4
B1: the Kd came to 74.3 nM.

B2: Saccharomyces cerevisiae Arp8 (natural protein)
chain: MSQEEAESSIIYEEPIDIPLEDDDDEDELEEENSVPLSSQADQENAENESDDSVDNVVGSETPRSVTGLSVDPRDVADEEDEDEEGEDEDEDEDDNDVDNEDENDNDNANENENELGSSRDKRAPPAVQTSKRYKKYPKLDPAKAPPGKKVPLHLLEKRRLGRIKAAEEFAKTLKKIGIEKVETTTLPATGLFQPLMLINQKNYSSDYLKKDDQIFALRDRKFLRNNNTSQISSTNTPDVIDLKSLPHSEASAAPLNDEIDLNDPTATIVIHPGSNSIKIGFPKDDHPVVVPNCVAVPKKWLDLENSEHVENVCLQREQSEEFNNIKSEMEKNFRERMRYYKRKVPGNAHEQVVSFNENSKPEIISEKNDPSPIEWIFDDSKLYYGSDALRCVDEKFVIRKPFRGGSFNVKSPYYKSLAELISDVTKLLEHALNSETLNVKPTKFNQYKVVLVIPDIFKKSHVETFIRVLLTELQFQAVAIIQESLATCYGAGISTSTCVVNIGAAETRIACVDEGTVLEHSAITLDYGGDDITRLFALFLLQSDFPLQDWKIDSKHGWLLAERLKKNFTTFQDADVAVQLYNFMNRSPNQPTEKYEFKLFDEVMLAPLALFFPQIFKLIRTSSHKNSSLEFQLPESRDLFTNELNDWNSLSQFESKEGNLYCDLNDDLKILNRILDAHNIIDQLQDKPENYGNTLKENFAPLEKAIVQSIANASITADVTRMNSFYSNILIVGGSSKIPALDFILTDRINIWRPSLLSSASFPQFYKKLTKEIKDLEGHYVNAPDKTEDENKQILQAQIKEKIVEELEEQHQNIEHQNGNEHIFPVSIIPPPRDMNPALIIWKGASVLAQIKLVEELFITNSDWDVHGSRILQYKCIFTY
notes: Actin-related protein 8 (Arp8), S. cerevisiae; also called Sc Arp8; yeast Arp8
Take B2: the Kd was 485 nM.
